Experimental findings from the domain aggregation screens of Martell et al. (2025) are described below.

This series can be described thus: soluble fraction after stress (log2 fold change); higher = more stays soluble; pooled small domains, quantitative proteomics. The note with it: stress: pH 4. In outline:
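Custom libraries of small protein domains were pooled and exposed to pH 4. High-throughput quantitative proteomics then measured the log2 fold change in the amount of each domain still soluble, with higher values meaning more stayed soluble. This soluble-fraction fold change stands for aggregation propensity.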

For “HMQISLAAARVNAGLTQEEVAKAMKVGKQTIVSWEKGNSEPKMSQSRELSELYKIPLDYIFYP”, the “soluble fraction (log2)” value was determined as 0.138.
As for “HMQITDSGAIETIIDKIIADNPGQVTQYLSGKDKVFGFFVGQTMKASQGKANPAEVNKILQEKLK”, the figure is -0.029; as for “HMQITQSSEPIDVSALRLGMFIHLEGGWLSHPFPRSSFKITSEDQLVTLRSLGISVLRWSPELSDPE”, -1.46; as for “HMQIVPVDYSTFMQSIDDKTVDHVEIQSNQILYTVKDDHKKYKTGIMNDPTLAQRLMESGATFTQD”, 0.185.
Consider “HMQKAEQIGSLLREKRKSMGLTQDELAQQVEVRRQTLADLELGKNVGSHLLIKVMEHLGVGFDLL”, for which the “soluble fraction (log2)” value was -0.962.
As for “HMQKEIKVPDVANMALSEAVEKLQNEGFKVADEQKEVSSDEIEEGKVVKTSPVAGTKKTKGSEITIYISSG”, the figure is 0.22.
To “HMQKFLEATGENRDAAVENALEQLGLERDDVSVEVLEIGKKGFLGIGATPARVRVTYEAPDI” belongs -1.51; to “HMQKKEVTVPEVRSKSLKEAAQILSEQNLKYETEPVNVENPDMVVIDQFPKPGGKISEQSVIILYLR”, 0.146.
As for “HMQKLNIEEQIVYDIIFKNKELSANEIQIKSGIKTSILNALLINLEIKQYIKLKFGNFYEIK”, the figure is -1.63; as for “HMQKMPEMQILPNGKVKLPDFSGINMRKAAELLQYGKLRLQPYGSGTAYQQKPAAGTEVDEGTVVEIWF”, 0.189.
As to “HMQKNFYQILGVDSKASPATINAAYERAKSRVIQSGLEDPDTMALLRDAWETLADPGDRAAYDESLAT”, the “soluble fraction (log2)” value is -0.0938.
To “HMQKPELLAPAGSLEKAKTAFKYGADAVYMGTSNLSLRSRVTVDDDELIKTIEYAHSINKKVYAALNIYAR” belongs 0.134; to “HMQKPWFYESSGQRKGGFSEQEMVGLITDGEITHGAIVWRNGLSDWTKLEQTELAAHLDKTA”, -1.06; to “HMQKRDQKKRANMLDSLKVGTRIVTIGGIFGEIAKIKDDRIRIKVAEDVEIWIRRAAVGTVIT”, at least 0.43.
To “HMQKTPFEIMTIYKDQILEMLGKDLTATEISIVLKKKGEKVHPREIRKFQLQHYEEVQDMRKKWRE” belongs -0.632; to “HMQKWILVNKQGRLSGILDHRAFNTRESATAWFQRTSDISGGTIKIDDYYYVLKNEEYKLLKE”, -1.34.
As for “HMQKYEDIINVTRERLQNKFYSQTVIPTDDDIYIWLDKVAILEEIKLSKEDRQMLFNLLKKEAT”, the figure is -0.879.
Consider “HMQLGQMIVKLRKEQGLTQETFAKKFNVTRQTVSNWENEKSYPDLHTLVKISDEFHLSLDILLK”, for which the “soluble fraction (log2)” value came out at 0.272.
As for “HMQLGSILAYKFPQFGGIDGAWQVRDDSNGTGPYIAFWDAKTIGRGMPTEDELTAWAQEYEA”, the figure is -1.38; as for “HMQLPTPEDLKKRRNELGLTQSDLAKRAGVSQPLIARIESGDVDPRLSTVRKILDAFEEVEKEQQ”, 0.0627; as for “HMQLSASQQQILNHAAVNTDGKLVWFPETLKGGARKKVLDSLFSRALITTDGTHWFVAAEGYEALGIP”, -0.0982.
Take “HMQLTDLSALEAIIKEVLAANPKSVEDYKSGKEKAFGSLVGQAMKATKGKANPETVNSLLRKNLN”: the “soluble fraction (log2)” value was -0.0162.
As for “HMQLTDSDFTRLYTYVKNSYGIDLSKKKQLISSRLTNMLIQQGYRDFTQYTDEIISGKNPEMVSAMLNRLT”, the figure is 0.0695; as for “HMQLTPAQHAILAKAIHSSDGKIEWFPDNVKGGARKKVLEGMFNRALITPDGEGWRIAAEGYDALGMPRP”, 0.165; as for “HMQLVGSSAAVLIPAPAGGLGKIRLEFRGQTIDLIAKATDGGALIEGGAVTIVDVRDGQADVSV”, -0.329.
To “HMQMMDATLKIPPSMGKLRGTLYELNSVTSEDVDENGQLALHVRLSSVDWQRLKKRFDSNLDELIVQKN” belongs -0.427; to “HMQMPLTMATMGEVNKIVKVGGNEETRRFLANLGFVAGAEVVVLSKIGGNVIVNVKDSRVAVNEDMARHIM”, -0.692.
As for “HMQMSDTAAIGKIVDEVFAENPAALEDYAKGKTNVVDWLTGQVMKKSRGQANPGIASELVQKRLADF”, the figure is 0.101; as for “HMQMSDTGAIEAMVKEALDENPQAIEDFKNGKGKALGFLMGQVMKKSKGQANGGIVNKLIKEELQKRIG”, 0.315; as for “HMQMTKSEFLDALRRALNGNMAAASVDDNIRFYDSYFYTEETKGRSEAEILSELGDPRILARTLIDAAD”, -0.382.
Turning to “HMQNEIQQLAIDLIARAHKSGASDIHIVDTGTYTRIKFRVLGLLREDSQMEAETGRQMISTIYGILG”, the “soluble fraction (log2)” value was -0.19.
To “HMQNEKLSYFVTETIVTERADLFITKKFPQFSRSQIQKLINSGNITINSNPIKASTEIINKDNIEITIPV” belongs -0.814.
As for “HMQNESGLFTMSDLWEAGLMGSENASRKRAAVGAFLGIGFGNGKQFLKRLNHFGVTKEEWESALEQLGE”, the figure is -0.447; as for “HMQNEVMPYSTFLSEVNSGNVTKVKIDHEQLTGTLKSGKQFTTYILDAATLPSIVAEKGVEVEVVPP”, 0.195.
As for “HMQNGNYVVQRQDSLWSIAARISGQTHQPIGEVMNHIKALNEHAFVGGNVNRLRTGTNLNLG”, the figure is 0.125.
Regarding “HMQNKRQEQLLALLAERRDYMTSRQLAEILQVSDRTIRSDVEAINRRSSPPPIESNVRQGYRLNPEA”, the “soluble fraction (log2)” value is -0.0908.
To “HMQNNIEFTVLEEDAQKRLDVLLSEKTALSRSASASLIEEGGVLVNGRKEPKKYKPVRGEIITAILPE” belongs -0.549; to “HMQNNTIAFSKFLQEVDNGRVVQVEIQGNNINGILSDGSKFNTYSPNYPALVEKLSEKNVNIVASPV”, 0.385; to “HMQNPDHLLALAAAAQAAIELGRPDEAEAYYRHLVEVYGVEMASQKPEYLDHSGITNDLRNVAEGFLVG”, -1.32.
As for “HMQNRIVNTTQGLAADKRGLLVADETGHTTRPGIFASGDVVNGARTVVEAVAHSKIVAESMHQYMQ”, the figure is at least 0.43.
To “HMQNSLKAFRVKRGLTTSALSRLTNGEFSTSRISNYETGVRALTIDAAKKLAPHLGASPAQLLNL” belongs 0.371.
Take “HMQNSPVFAASDIEDIRVGMTVEHQRFGQGRVMSIEGNGPNKKTTVLFEGIGEKQLLLQYAKLKIV”: the “soluble fraction (log2)” value was -0.242.
Turning to “HMQNYLLFEEAKNIVNTLNLTNEKDWSEFIKKDFTYKNQIPIFPNQYYKHKGWVDWNDWLGINK”, the “soluble fraction (log2)” value was -1.62.
As for “HMQNYTTIIGVIELRLNDISYDNVRKRYHIGRSGITLIMDRYRDSGLSLEDLKQMTPEKVVDLFYPR”, the figure is 0.0145; as for “HMQPAALEAQVIKLVRLHAPIKARQLATILANEFGQHVDRSTVNSLLYQLRAQGKVAQNAAYQWSLT”, -0.0984.
As for “HMQPEKELAPLIGQRVSVRLHDGDGGYRDLLGELESPDSIRKKNGEIAFFDPAKIAALRVVV”, the figure is 0.326; as for “HMQPGDRVDALIVGVSGEHVFLDVGGKSEGVMAAAELRNEAGELSAAEGDRVQVYLLSNRNGELIFTA”, -0.283; as for “HMQPHLSADEEHLLKILGSDTMHIDALVKRSTLETSNALAALAFLEMKGLVKNIGNMHYIRTYR”, -0.518.
To “HMQPIAVHIGTENPMKSLSDLSVVRAQFTSGGRVIGSVAVLGPTRMQYSRIVGMMRFMQQRLDLLLKG” belongs -0.0772.
As for “HMQPKKLNMYYDYVRQLLESHPYLSAAQIEDRLKEEFTELPMVHSKTVFNFVENIRLQHGINKHA”, the “soluble fraction (log2)” value amounted to 0.0853.
To “HMQPLRQGDFVTSEVVKVQDGTAVLRTAQGTLLSASLTGNLGLLPGDRVETVVVEASPGRFVLRVLDIIR” belongs -0.266.
As for “HMQPPLTPRELGVLQWAAEGKTTRDTSAILQIHQRTVEMHLKSAREKLDALNTTHAVARALAHGFILPPS”, the figure is 0.102.
As for “HMQPPVDGNEIMEIFGIKGSPVIGVIKSTIKNAILDGIIAPNDREAALELMFRIADENGLKPVVTQTQ”, the figure is -0.855; as for “HMQPRYMLIKTAILDAIERGEMKPGSQVPSENQLAQQHNVSRMTARRALSEMVDDGILMRSQGIGTFVSD”, -0.591.
Regarding “HMQPSFFEMIRMVESYIKQHFENVGNEFPEIARAIYYGIEEERNIYGTASREDMEELLDEGIPILPVP”, the “soluble fraction (log2)” value was -0.937.
To “HMQPVEHLPTTDPLTTSAASEHERYEKVRWWLEEMQRTYETGDEVRAERIRLSLIEQMYKWEGE” belongs -1.09; to “HMQPYTYNPNFLSDYRAYSLGIPLEAYDKLVQFRASGSFVNSMSDFQKITGVSDSLLAVLHSKFRYPK”, -0.602.
“HMQQELEEMESGNLVRTAIDSLPINQRTAFILSAYEELPIKEIASIMNRSEGAVEQLLQRAKMNLKKKIK”: the “soluble fraction (log2)” value was -0.0659.
For the sequence “HMQQLTDRELEVLRLLAAGLSNNKIGEKLYISATTAKFHVSNIMRKLEVSRRAEAVYAASKRGL”, the “soluble fraction (log2)” value is -0.587.
To “HMQQLTQRELTLLRLLANGYNNRQIAEQLQLAESTVKNNLSALFQKIGVRDRTQAVLFAISQGLVP” belongs -0.462; to “HMQQNDMTELRALAEKIISENDSVINDYKSGQGSALQFLIGQAMKETKGSANPQVISEIFTDLL”, -0.548; to “HMQQPIPGEAYLTRRPGSDHFQIAFTIDGHRVRESSGTSDKVAAAALAQKRYEEVWREIKLGEK”, -0.0232.
To “HMQQPVAYSEFVQSVNDRQIREAQIQGERIVATDNNGNRMTVIWPENDTKLLDELVQNGVLTSIQE” belongs -0.675; to “HMQQVDWGSVFGDFGTMFKDQLQPTIDRLRRMAQSDTFRQSSLEEQQILYSLIEKLERSGTA”, -2.1.
To “HMQQVIEGLDSDRDFITVPEAIALFAVGRQTLYHYIRSGKIPSVNLGQRLTRLSKKQLGELFPLR” belongs -0.287; to “HMQRGRTFSIVLNWKGRLLSTQMFFPQFTRPTKEQVTFEINKVYPGAMVYYYNPIEKDPSQPLV”, 0.0658; to “HMQRLSRREIEVLHWIAEGKSDWQIGQILSISAKTVNYHTENLKRKFGVATRMQAVVSAIKQGAFVPGE”, -1.31.
On to “HMQRVSDKVAAQLRVLVQEQQLKPGDRLPAERALAVQLGVSRTALREAIAQLASQGLLTARVGGGTYVAEP”, for which the “soluble fraction (log2)” value was 0.22.
As for “HMQRYVVDENLKLDKKDINHIINVMRLNVNDQIKLINNGTIYDAIITKIEKNNVLYEIIKKEESK”, the figure is -0.809.
